Columns and labels:
murine PILRA [1] = target: T1, murine PILRA (mouse, UniProt Q2YFS3 32-302); assay: flow cytometry, conditioned medium on 293 cells expressing the target
T1 construct: Ectopically expressed on 293 cells; also called mPILRA; mouse PILRA
Protocol: (§1) Antibodies against human PILRA were generated as follows. […] PILRA^{-/-} PILRB1^{-/-} PILRB2^{-/-} mice were immunized with human PILRA protein, and hybridomas prepared using standard methods. 300 conditioned media samples containing antibodies were assessed for binding to parental 293 cells or 293 cells ectopically expressing hPILRA, hPILRB, cPILRA, mPILRA, or mPILRB by FACS. […] Six antibodies were identified as human PILRA binders using a cutoff of greater than 5-fold binding. […] No antibody was identified that bound mouse PILRA.

human PILRA = target: T2, human PILRA (human, UniProt Q9UKJ1 20-303); assay: flow cytometry, hybridoma conditioned medium on 293 cells expressing the target; MFI relative to 293 parental cells
T2 construct: also called hPILRA
Protocol: as §1

human PILRB = target: T3, human PILRB (human, UniProt Q9UKJ0 20-227); assay: as above
T3 construct: Ectopically expressed on 293 cells; also called hPILRB
Protocol: as §1

cynomolgus monkey PILRA = target: T4, cynomolgus monkey PILRA (cynomolgus monkey); assay: as above
T4 construct: Ectopically expressed on 293 cells; also called cPILRA
Protocol: as §1

murine PILRA [2] = target: T1, murine PILRA; assay: as above
Protocol: as §1

murine PILRB (mPILRB1) = target: T5, murine PILRB (mPILRB1) (mouse, UniProt Q2YFS2 29-224); assay: as above
T5 construct: whole, on cells; Ectopically expressed on 293 cells; also called mouse PILRB
Protocol: as §1

[3] = target: T6, soluble human PILRA hIgG1 Fc construct (human); assay: flow cytometry; blocking of PILRA Fc binding to human CD3+ T cells, 3 donors, average ± SEM
T6 construct: also called PILRA Fc; PILRA-Fc
Protocol: Purified anti-hPILRA antibodies were evaluated for their ability to block binding of PILRA Fc to human CD3+ T cells from 3 separate donors in order to calculate the ligand blocking potency of these antibodies.

T5 sequence (Q2YFS2 29-224): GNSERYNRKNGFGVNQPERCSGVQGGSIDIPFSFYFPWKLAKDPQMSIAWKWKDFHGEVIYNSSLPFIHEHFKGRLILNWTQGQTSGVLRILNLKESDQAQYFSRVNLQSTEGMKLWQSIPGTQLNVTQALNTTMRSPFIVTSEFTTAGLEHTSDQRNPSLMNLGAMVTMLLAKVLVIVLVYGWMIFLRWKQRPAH
T3 sequence (Q9UKJ0 20-227): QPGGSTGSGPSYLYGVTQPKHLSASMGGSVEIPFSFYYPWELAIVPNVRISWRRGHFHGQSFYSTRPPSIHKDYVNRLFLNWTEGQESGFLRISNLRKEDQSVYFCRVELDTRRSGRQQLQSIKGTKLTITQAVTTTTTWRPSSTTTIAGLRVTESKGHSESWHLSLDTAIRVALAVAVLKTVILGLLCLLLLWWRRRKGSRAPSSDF
T2 sequence (Q9UKJ1 20-303): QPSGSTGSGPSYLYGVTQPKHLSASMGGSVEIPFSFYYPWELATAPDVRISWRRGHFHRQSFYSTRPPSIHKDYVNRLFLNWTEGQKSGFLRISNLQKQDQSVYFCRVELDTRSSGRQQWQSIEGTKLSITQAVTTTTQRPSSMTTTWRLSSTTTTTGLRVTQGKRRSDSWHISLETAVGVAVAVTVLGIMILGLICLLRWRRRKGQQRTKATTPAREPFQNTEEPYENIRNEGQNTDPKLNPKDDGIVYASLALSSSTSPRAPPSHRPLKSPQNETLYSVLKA
T6 sequence (chain, as listed by the source limits assumed): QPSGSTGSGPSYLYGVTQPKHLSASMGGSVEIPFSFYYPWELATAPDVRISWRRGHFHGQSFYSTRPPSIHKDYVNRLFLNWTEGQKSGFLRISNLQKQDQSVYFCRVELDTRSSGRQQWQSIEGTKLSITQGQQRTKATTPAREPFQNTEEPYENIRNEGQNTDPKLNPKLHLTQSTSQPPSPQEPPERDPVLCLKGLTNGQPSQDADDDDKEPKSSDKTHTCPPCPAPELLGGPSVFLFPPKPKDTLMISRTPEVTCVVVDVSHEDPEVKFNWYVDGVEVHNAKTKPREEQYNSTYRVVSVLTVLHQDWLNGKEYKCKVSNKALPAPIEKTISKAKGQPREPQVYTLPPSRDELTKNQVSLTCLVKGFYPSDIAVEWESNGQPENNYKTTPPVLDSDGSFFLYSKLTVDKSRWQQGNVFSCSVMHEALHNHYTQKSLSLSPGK
T4 sequence (chain, as listed by the source): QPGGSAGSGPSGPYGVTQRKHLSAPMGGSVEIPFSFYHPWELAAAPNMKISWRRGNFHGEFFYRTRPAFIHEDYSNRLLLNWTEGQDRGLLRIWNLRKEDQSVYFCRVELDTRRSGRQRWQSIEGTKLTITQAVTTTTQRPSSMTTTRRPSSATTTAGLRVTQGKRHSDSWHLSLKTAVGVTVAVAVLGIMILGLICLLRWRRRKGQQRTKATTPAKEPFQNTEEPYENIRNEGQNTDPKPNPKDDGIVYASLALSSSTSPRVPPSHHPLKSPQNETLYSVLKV
T1 sequence (Q2YFS3 32-302): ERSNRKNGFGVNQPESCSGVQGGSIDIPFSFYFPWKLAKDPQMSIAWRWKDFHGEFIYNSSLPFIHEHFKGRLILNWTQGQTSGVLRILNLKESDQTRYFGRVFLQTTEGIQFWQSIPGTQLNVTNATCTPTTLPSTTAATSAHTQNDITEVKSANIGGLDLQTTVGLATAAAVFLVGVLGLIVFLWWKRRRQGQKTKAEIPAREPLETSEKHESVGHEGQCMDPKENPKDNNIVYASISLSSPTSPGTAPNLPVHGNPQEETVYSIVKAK

Binder	MFI relative to 293 parental cells (human PILRA)	MFI relative to 293 parental cells (human PILRB)	MFI relative to 293 parental cells (cynomolgus monkey PILRA)	MFI relative to 293 parental cells (murine PILRA [2])	MFI relative to 293 parental cells (murine PILRB (mPILRB1))	IC50 [3]	binding result (murine PILRA [1])
hPA-001 (antibody, V domains shown, Mouse hybridoma antibody, tested as conditioned medium) VH: QVTLKESGPGILQPSQTLSLTCSFSGFSLTTFGMGVGWIRQPSGKGLEWLAHIWWDDDKYYNPALKSRLTISKDISKNQVFLKIANVDTADTATYYCARIEDYGNPFDYWGQGTTLTVSS VL: DIQMNQSPSSLSASLGDTITITCHASQNIHVWLSWYQQKPGNIPKLLIYKASNLHTGVPSRFSGSGSGTGFTLTISSLQPEDIATYYCQQGQSYPLTFGAGTKLELK	131 fold over 293 parental cells	1.3 fold over 293 parental cells	0.5 fold over 293 parental cells	0.5 fold over 293 parental cells	0.5 fold over 293 parental cells	–	no binding (tested: cutoff of greater than 5-fold binding)
hPA-002 (antibody, V domains shown, Mouse hybridoma antibody, tested as conditioned medium or purified; also called hPA-002 A647) VH: QVTLQESGPGILQPSQTLSLTCSFSGFSLSTFGMGVGWIRQPSGKGLEWLAHIWWDDDKYYNPALKSRLTISKDTSKNQVFLKIASVDTADIATYYCARVEDYGNPFDYWGQGTTLTVSS VL: DIQMNQSPSSLSASLGDTITITCHASQNIHVWLNWYQQKPGNIPKLLIYKASNLHTGVPSRFSGSGSGTGFTVTISSLQPEDIATYYCQQGQSYPLTFGAGTKLELK	133 fold over 293 parental cells	1.2 fold over 293 parental cells	0.3 fold over 293 parental cells	0.3 fold over 293 parental cells	0.3 fold over 293 parental cells	0.75 nM	no binding (tested: cutoff of greater than 5-fold binding)

More lines, in order of falling IC50 [3], values ahead:

MFI relative to 293 parental cells (human PILRA)	MFI relative to 293 parental cells (human PILRB)	MFI relative to 293 parental cells (cynomolgus monkey PILRA)	MFI relative to 293 parental cells (murine PILRA [2])	MFI relative to 293 parental cells (murine PILRB (mPILRB1))	IC50 [3]	Binder	binding result (murine PILRA [1])
104 fold over 293 parental cells	1.3 fold over 293 parental cells	0.5 fold over 293 parental cells	0.4 fold over 293 parental cells	0.5 fold over 293 parental cells	1.9 nM	hPA-005 (antibody, V domains shown, Mouse hybridoma antibody, tested as conditioned medium or purified) VH: QVILKESGPGILQSSQTLSLTCSFSGFSLSTFGMGVGWIRQPSGKGLESLAHIWWDDDKFYNPALKSRLTISKDTSKSQVFLKIANVDTADIATYYCTRIEDYGSYFAYWGQGTTLTVSS VL: DVQMNQSPSSLSASLGDPITITCHASQNIHVWLNWYQQRPGNIPRLLIYKASNLHTGVPSRFSGSGSGTGFTLTISSLQPEDIATYYCQQGQSYPYTFGGGTKLEIK	no binding (tested: cutoff of greater than 5-fold binding)
83.9 fold over 293 parental cells	–	–	0.6 fold over 293 parental cells	0.6 fold over 293 parental cells	1.7 nM	hPA-004 (antibody, V domains shown, Mouse hybridoma antibody, tested as conditioned medium or purified) VH: QVTLKESGPGMLQPSQTLSLACSFSGFSLNSFGVAVGWIRQPSGKGLEWLAHIWWDDDKSYNPALKSRLTISKDTSKNQVFLKLANVDTADTATYYCTRIADYGNHFDYWGQGTALTVSS VL: DIQMNQSPSSLSASLGDTITITCHASQNSHVWLSWYQQKPGNIPKLLIYKASNLHTGVPSRFSGSGSGTGFTLTISGLQPEDIATYYCQQGQTYPFTFGSGTKLEIK	no binding (tested: cutoff of greater than 5-fold binding)
